# Patent US20240327815A1 (Zymeworks, published 2024)
# B1: Etesevimab (antibody, V domains shown)
# VH: EVQLVESGGGLVQPGGSLRLSCAASGFTVSSNYMSWVRQAPGKGLEWVSVIYSGGSTFYADSVKGRFTISRDNSMNTLFLQMNSLRAEDTAVYYCARVLPMYGDYLDYWGQGTLVTVSS
# VL: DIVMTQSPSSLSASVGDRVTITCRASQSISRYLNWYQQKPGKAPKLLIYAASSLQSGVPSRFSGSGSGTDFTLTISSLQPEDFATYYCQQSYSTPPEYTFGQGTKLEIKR
# B2: REGN10933 (Casirivimab) (antibody, V domains shown)
# VH: QVQLVESGGGLVKPGGSLRLSCAASGFTFSDYYMSWIRQAPGKGLEWVSYITYSGSTIYYADSVKGRFTISRDNAKSSLYLQMNSLRAEDTAVYYCARDRGTTMVPFDYWGQGTLVTVSS
# VL: DIQMTQSPSSLSASVGDRVTITCQASQDITNYLNWYQQKPGKAPKLLIYAASNLETGVPSRFSGSGSGTDFTFTISGLQPEDIATYYCQQYDNLPLTFGGGTKVEIKR
# B3: REGN10987 (Imdevimab) (antibody, V domains shown)
# VH: QVQLVESGGGVVQPGRSLRLSCAASGFTFSNYAMYWVRQAPGKGLEWVAVISYDGSNKYYADSVKGRFTISRDNSKNTLYLQMNSLRTEDTAVYYCASGSDYGDYLLVYWGQGTLVTVSS
# VL: QSALTQPASVSGSPGQSITISCTGTSSDVGGYNYVSWYQQHPGKAPKLMIYDVSKRPSGVSNRFSGSKSGNTASLTISGLQSEDEADYYCNSLTSISTWVFGGGTKLTVLR
# B4: Bamlanivimab (antibody, V domains shown)
# VH: QVQLVQSGAEVKKPGSSVKVSCKASGGTFSNYAISWVRQAPGQGLEWMGRIIPILGIANYAQKFQGRVTITADKSTSTAYMELSSLRSEDTAVYYCARGYYEARHYYYYYAMDVWGQGTAVTVSS
# VL: not shown
# Key:
# [1] = molecular target: P.1 (Gamma) SARS-CoV-2 spike protein, plate-coated (MSD) (SARS-CoV-2, UniProt P0DTC2 14-1208); test: MSD competition vs labelled ACE2
# [2] = molecular target: Alpha SARS-CoV-2 spike on pseudotyped lentivirus (SARS-CoV-2, UniProt P0DTC2 14-1273); test: cell-based or functional assay
# [3] = molecular target: Beta SARS-CoV-2 spike on pseudotyped lentivirus (SARS-CoV-2, UniProt P0DTC2 14-1273); test: cell-based or functional assay
binder,measurement,setting,value
B1,IC50,[1],80 pM
B2,"Pseudovirus Neutralization (IC50, nM)",[2],0.05 nM
B3,"Pseudovirus Neutralization (IC50, nM)",[3],41.1 nM
same,"Pseudovirus Neutralization (IC50, nM)",[2],0.13 nM
B4,"Pseudovirus Neutralization (IC50, nM)",[3],> 100 nM
same,"Pseudovirus Neutralization (IC50, nM)",[2],1.9 nM
